According to US20230183713A1, “SITE-SPECIFIC RECOMBINASES FOR EFFICIENT AND SPECIFIC GENOME EDITING” (TECHNISCHE UNIVERSITÄt DRESDEN, published 2023):

Assays:
[1] = target: T1, Cre recombinase monomer with Y324A mutation
T1 chain: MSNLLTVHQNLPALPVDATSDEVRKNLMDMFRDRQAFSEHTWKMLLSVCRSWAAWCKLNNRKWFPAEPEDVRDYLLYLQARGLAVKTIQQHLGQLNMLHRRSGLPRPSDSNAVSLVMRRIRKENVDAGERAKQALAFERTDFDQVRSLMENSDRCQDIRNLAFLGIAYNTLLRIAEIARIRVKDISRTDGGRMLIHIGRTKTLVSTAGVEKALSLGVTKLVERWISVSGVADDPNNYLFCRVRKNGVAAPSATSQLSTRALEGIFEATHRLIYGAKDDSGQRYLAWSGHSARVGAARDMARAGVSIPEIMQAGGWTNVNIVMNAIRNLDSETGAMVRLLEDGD

[2] = target: T2, Cre recombinase monomer with W315S mutation
T2 chain: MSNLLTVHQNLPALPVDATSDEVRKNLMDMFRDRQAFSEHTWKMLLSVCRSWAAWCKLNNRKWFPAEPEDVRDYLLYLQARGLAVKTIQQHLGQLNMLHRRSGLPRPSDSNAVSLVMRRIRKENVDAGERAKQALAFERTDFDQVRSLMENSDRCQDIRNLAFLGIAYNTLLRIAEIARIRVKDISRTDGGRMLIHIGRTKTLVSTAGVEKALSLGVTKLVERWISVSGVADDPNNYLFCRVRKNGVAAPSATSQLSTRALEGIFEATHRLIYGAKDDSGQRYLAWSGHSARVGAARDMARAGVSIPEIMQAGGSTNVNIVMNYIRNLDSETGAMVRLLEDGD

[3] = target: T3, Cre recombinase monomer with W315Q mutation
T3 chain: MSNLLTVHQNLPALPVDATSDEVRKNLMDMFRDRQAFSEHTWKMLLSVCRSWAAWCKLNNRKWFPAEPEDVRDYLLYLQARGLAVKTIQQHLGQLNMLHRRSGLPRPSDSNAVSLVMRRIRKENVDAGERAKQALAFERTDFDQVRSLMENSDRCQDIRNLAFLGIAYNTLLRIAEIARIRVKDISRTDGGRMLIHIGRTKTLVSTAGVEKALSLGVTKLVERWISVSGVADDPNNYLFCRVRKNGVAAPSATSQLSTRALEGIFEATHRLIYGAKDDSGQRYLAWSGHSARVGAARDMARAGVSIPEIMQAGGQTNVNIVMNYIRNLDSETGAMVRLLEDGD

[4] = target: T4, Cre recombinase monomer with Y324I mutation
T4 chain: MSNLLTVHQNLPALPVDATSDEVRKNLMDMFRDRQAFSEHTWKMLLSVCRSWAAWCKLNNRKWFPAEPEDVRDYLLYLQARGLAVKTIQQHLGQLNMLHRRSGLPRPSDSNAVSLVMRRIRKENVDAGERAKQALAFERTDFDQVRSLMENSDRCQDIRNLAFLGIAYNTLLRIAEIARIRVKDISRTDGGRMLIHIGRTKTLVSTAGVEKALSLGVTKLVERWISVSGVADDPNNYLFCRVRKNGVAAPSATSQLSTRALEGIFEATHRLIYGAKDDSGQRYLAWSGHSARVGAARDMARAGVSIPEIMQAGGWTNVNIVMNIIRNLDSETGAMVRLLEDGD

[5] = target: T5, Cre recombinase monomer with Y324M mutation
T5 chain: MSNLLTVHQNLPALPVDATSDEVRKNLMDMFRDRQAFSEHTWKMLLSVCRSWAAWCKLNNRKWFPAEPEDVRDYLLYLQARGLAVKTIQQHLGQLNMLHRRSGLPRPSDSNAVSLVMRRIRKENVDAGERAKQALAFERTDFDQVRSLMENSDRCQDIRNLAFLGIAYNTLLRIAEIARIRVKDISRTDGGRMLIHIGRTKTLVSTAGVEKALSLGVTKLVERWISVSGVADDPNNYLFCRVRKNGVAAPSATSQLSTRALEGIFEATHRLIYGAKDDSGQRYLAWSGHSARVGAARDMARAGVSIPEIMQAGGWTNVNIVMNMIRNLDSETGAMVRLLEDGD

[6] = target: T6, Cre recombinase monomer with Y324V mutation
T6 chain: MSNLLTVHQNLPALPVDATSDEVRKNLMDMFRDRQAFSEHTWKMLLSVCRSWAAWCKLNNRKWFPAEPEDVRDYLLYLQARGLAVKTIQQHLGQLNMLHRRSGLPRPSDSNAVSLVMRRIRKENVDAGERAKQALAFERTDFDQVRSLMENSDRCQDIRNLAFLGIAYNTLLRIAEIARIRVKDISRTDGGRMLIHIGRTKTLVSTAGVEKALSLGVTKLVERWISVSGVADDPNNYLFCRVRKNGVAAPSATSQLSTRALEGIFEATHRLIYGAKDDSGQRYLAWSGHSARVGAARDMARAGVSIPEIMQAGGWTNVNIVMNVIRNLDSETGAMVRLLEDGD

[7] = target: T7, Cre recombinase monomer with Y324F mutation
T7 chain: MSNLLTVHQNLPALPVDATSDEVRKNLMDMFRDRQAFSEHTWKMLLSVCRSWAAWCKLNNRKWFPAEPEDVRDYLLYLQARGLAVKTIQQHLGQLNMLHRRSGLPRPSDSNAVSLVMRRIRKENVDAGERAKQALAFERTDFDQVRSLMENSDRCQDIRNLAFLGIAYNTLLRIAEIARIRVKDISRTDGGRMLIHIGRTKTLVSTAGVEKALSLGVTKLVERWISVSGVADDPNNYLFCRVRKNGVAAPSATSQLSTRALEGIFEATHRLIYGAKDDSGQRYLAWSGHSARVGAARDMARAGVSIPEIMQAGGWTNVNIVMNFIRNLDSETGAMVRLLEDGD

[8] = target: T8, Cre recombinase monomer with W315T mutation
T8 chain: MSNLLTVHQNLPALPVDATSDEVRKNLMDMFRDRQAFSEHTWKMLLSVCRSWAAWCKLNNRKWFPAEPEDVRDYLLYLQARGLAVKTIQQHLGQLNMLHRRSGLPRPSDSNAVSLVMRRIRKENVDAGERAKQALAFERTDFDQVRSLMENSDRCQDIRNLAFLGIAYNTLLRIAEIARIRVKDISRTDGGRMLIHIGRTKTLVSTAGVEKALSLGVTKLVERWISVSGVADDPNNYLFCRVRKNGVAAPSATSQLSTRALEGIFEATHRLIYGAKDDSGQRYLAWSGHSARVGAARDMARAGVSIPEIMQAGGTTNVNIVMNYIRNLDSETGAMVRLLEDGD

B1: Cre recombinase monomer with Q311R mutation (protein)
chain: MSNLLTVHQNLPALPVDATSDEVRKNLMDMFRDRQAFSEHTWKMLLSVCRSWAAWCKLNNRKWFPAEPEDVRDYLLYLQARGLAVKTIQQHLGQLNMLHRRSGLPRPSDSNAVSLVMRRIRKENVDAGERAKQALAFERTDFDQVRSLMENSDRCQDIRNLAFLGIAYNTLLRIAEIARIRVKDISRTDGGRMLIHIGRTKTLVSTAGVEKALSLGVTKLVERWISVSGVADDPNNYLFCRVRKNGVAAPSATSQLSTRALEGIFEATHRLIYGAKDDSGQRYLAWSGHSARVGAARDMARAGVSIPEIMRAGGWTNVNIVMNYIRNLDSETGAMVRLLEDGD
[1]
  Median dimer activity (recombination on loxP): 93%
[2]
  Median dimer activity (recombination on loxP): 37%
[3]
  Median dimer activity (recombination on loxP): 49%
[4]
  Median dimer activity (recombination on loxP): 96%
[5]
  Median dimer activity (recombination on loxP): 96%
[6]
  Median dimer activity (recombination on loxP): 90%
[7]
  Median dimer activity (recombination on loxP): 95%
[8]
  Median dimer activity (recombination on loxP): 66%
